Where no end group is shown, it is not given here.

What all share (test): dot blot: peptide on nitrocellulose, probed with biotinylated-HN and streptavidin-HRP
One test has as its target T1, SHLP2 (human).
T1 construct: Dotted on nitrocellulose; also called small humanin-like peptide 2; SHLP2 (M)
T1 peptide: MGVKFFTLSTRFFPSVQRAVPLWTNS
As for the experimental part:
(§1) FIG. 12 HN binds to SHLP2 and SHLP4. 2, 5 and 10 nmol of IGF-1 (negative control), HN, SHLP1, 2 or 4 were dotted on to nitrocellulose membrane and left to dry. The membrane was blocked, incubated with biotinylated-HN and streptavidin-HRP and exposed by autoradiography.
(§2) To test a dimerization hypothesis, we performed a dot-blot using biotinylated-HN. Two, 5 or 10 nmol IGF-I (negative control), HN (positive control) or SHLP peptide were dotted on to nitrocellulose membrane, and their ability to bind to biotinylated-HN was assessed immunologically. […] Specific interactions that occur may be determined using, e.g., dot blots with biotinylated SHLPs, and/or antibodies against specific SHLPs.

The target in a further test is T2, SHLP4 (human).
T2 construct: Dotted on nitrocellulose; also called small humanin-like peptide 4; SHLP4 (M)
T2 peptide: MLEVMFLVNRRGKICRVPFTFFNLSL
As for the experimental part: as §1, §2

The next test has as its target T3, humanin (HN) (human).
T3 construct: Unlabelled HN dotted on nitrocellulose as positive control; also called Humanin (M)
T3 peptide: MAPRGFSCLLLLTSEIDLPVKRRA
As for the experimental part:
as §1, §2

The target of a further test is T4, SHLP1 (human).
T4 construct: Dotted on nitrocellulose; also called small humanin-like peptide 1; SHLP1 (M)
T4 peptide: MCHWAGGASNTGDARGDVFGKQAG
As for the experimental part:
as §1, §2

B1: biotinylated-HN (peptide)
peptide: MAPRGFSCLLLLTSEIDLPVKRRA
modifications: also: biotinylated, site not given here
notes: Probe in solution in the dot blot, detected with streptavidin-HRP; also called biotinylated humanin
On to B1, for which the binding result is reported as “binds” with SHLP2; “binds” with SHLP4; “binds” with humanin (HN); “no binding (tested: 2, 5 or 10 nmol dotted)” with SHLP1.

The record behind these values is patent US20110039771A1 (University of California, published 2011).
